Laboratory results: patent US20260151494A1 (ARO BIOTHERAPEUTICS, published 2026)
Numbering of substitutions follows the chain as printed.

B1: CD71-binding FN3 domain of SEQ ID NO: 181 (designed binder)
chain: MSLPAPKNLVVSRVTEDSARLSWTAPDAAFDSFEIGYFENDYFGEAIVLTVPGSERSYDLTGLKPGTEYWVQIGGVKGGNWSAPLSAIFTT
B2: CD71-binding FN3 domain of SEQ ID NO: 190 (designed binder)
chain: B1 chain with V11I, D41L, F43L, F89S
B3: CD71-binding FN3 domain of SEQ ID NO: 195 (designed binder)
chain: B1 chain with V10I, D41L, F43L, G79S
B4: CD71-binding FN3 domain of SEQ ID NO: 208 (designed binder)
chain: B1 chain with E34F, D41L, F43L
B5: CD71-binding FN3 domain of SEQ ID NO: 216 (designed binder)
chain: B1 chain with G36A, N40Q, D41T, F43T, N80T, F89S
B6: CD71-binding FN3 domain of SEQ ID NO: 205 (designed binder)
chain: MSLPAPKNLVVSRVTEDSARLSWTAPDAAFDSFEIGYFENLYLGEAIHLFVPGSERSYDLTGLKPGTEYNVTIQGVKGGFPSEPLIANFTT
B7: CD71-binding FN3 domain of SEQ ID NO: 201 (designed binder)
chain: MSLPAPKNLVVSRVTEDSARLSWTAPDAAFDSFEIAYFEGTFHGEAIVLFVPGSERSYDLTGLKPGTEYAVWIGGVKGGDYSRPLSAAFTT
B8: CD71-binding FN3 domain of SEQ ID NO: 193 (designed binder)
chain: B1 chain with D41L, F43L, A83E
B9: CD71-binding FN3 domain of SEQ ID NO: 212 (designed binder)
chain: B1 chain with D41L, F43L, S57Y
B10: CD71-binding FN3 domain of SEQ ID NO: 211 (designed binder)
chain: B1 chain with G36V, F38A, N40P, D41V, Y42R, N80E, A83S, P84L
B11: CD71-binding FN3 domain of SEQ ID NO: 203 (designed binder)
chain: B1 chain with S18F, G36A, F38W, N40Q, D41S, F43T, W70F, Q72H, N80V, A83T
B12: CD71-binding FN3 domain of SEQ ID NO: 199 (designed binder)
chain: B1 chain with D41L, F43L, S54Y
B13: CD71-binding FN3 domain of SEQ ID NO: 192 (designed binder)
chain: B1 chain with D41L, F43L, N80W, W81G, A83N
B14: CD71-binding FN3 domain of SEQ ID NO: 202 (designed binder)
chain: B1 chain with D41L, F43L, W70Y, Q72H, N80I, A83S
B15: CD71-binding FN3 domain of SEQ ID NO: 186 (designed binder)
chain: B1 chain with D41P, F43L
B16: CD71-binding FN3 domain of SEQ ID NO: 215 (designed binder)
chain: B1 chain with F33L, D41L, F43L
B17: CD71-binding FN3 domain of SEQ ID NO: 188 (designed binder)
chain: B1 chain with F38W, D41A, F43K, W70V, Q72F, N80H, W81G, A83Q
B18: CD71-binding FN3 domain of SEQ ID NO: 207 (designed binder)
chain: B1 chain with F38W, D41A, F43K, W70V, Q72F, N80V, A83V, F89S
B19: CD71-binding FN3 domain of SEQ ID NO: 214 (designed binder)
chain: B1 chain with G36D, F38G, N40Y, D41S, Y42Q, F43A, V48G, T50L
B20: CD71-binding FN3 domain of SEQ ID NO: 189 (designed binder)
chain: B1 chain with N40H, D41T, F43Y
B21: CD71-binding FN3 domain of SEQ ID NO: 187 (designed binder)
chain: B1 chain with F38W, D41A, F43K, W70R, Q72W, N80V, A83R
B22: CD71-binding FN3 domain of SEQ ID NO: 209 (designed binder)
chain: B1 chain with G36A, N40R, D41T, Y42W, N80D, A83R
B23: CD71-binding FN3 domain of SEQ ID NO: 217 (designed binder)
chain: B1 chain with G36A, N40Q, D41T, F43T, Q72A, N80L, A83L
B24: CD71-binding FN3 domain of SEQ ID NO: 200 (designed binder)
chain: B1 chain with D41L, F43L, G79S
B25: CD71-binding FN3 domain of SEQ ID NO: 191 (designed binder)
chain: B1 chain with D41L, F43L, T61A
B26: CD71-binding FN3 domain of SEQ ID NO: 184 (designed binder)
chain: B1 chain with L21P, G36A, N40R, D41T, Y42W, N80D, A83K
B27: CD71-binding FN3 domain of SEQ ID NO: 206 (designed binder)
chain: B1 chain with V11A, D41L, F43L
B28: CD71-binding FN3 domain of SEQ ID NO: 194 (designed binder)
chain: B1 chain with D41L, F43L, W70P, Q72W, N80T, A83V, A87T
B29: CD71-binding FN3 domain of SEQ ID NO: 213 (designed binder)
chain: B1 chain with D41L, F43L, V76A
B30: CD71-binding FN3 domain of SEQ ID NO: 183 (designed binder)
chain: B1 chain with V11I, G36V, F38A, N40P, D41V, Y42R, N80E, A83S
B31: CD71-binding FN3 domain of SEQ ID NO: 182 (designed binder)
chain: B1 chain with K7E, F38W, D41A, F43K, W70V, Q72F, N80V, A83V, A87V

Key:
[1] = molecular target: T1, human CD71 extracellular domain (human, UniProt P02786 89-760); assay: primary ELISA; note: test concentration or dose not given here
T1 construct: also called hCD71; human CD71-ECD

[2] = molecular target: T2, apical domain of cynomolgus CD71 (cynomolgus, UniProt A0A2K5X958 189-383); assay: primary ELISA; note: test concentration or dose not given here
T2 construct: domain: apical domain; also called Cyno apical domain

[3] = molecular target: T1, human CD71 extracellular domain; assay: primary ELISA, signal ratio to HSA
[4] = molecular target: T2, apical domain of cynomolgus CD71; assay: primary ELISA, signal ratio to HSA

T2 sequence (A0A2K5X958 entry or part of it): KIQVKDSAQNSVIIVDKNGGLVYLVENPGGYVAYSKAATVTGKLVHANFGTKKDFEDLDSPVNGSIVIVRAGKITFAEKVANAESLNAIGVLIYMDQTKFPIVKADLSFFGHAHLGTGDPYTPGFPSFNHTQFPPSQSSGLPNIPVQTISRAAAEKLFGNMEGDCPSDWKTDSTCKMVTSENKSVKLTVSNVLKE
T1 sequence (P02786 89-760): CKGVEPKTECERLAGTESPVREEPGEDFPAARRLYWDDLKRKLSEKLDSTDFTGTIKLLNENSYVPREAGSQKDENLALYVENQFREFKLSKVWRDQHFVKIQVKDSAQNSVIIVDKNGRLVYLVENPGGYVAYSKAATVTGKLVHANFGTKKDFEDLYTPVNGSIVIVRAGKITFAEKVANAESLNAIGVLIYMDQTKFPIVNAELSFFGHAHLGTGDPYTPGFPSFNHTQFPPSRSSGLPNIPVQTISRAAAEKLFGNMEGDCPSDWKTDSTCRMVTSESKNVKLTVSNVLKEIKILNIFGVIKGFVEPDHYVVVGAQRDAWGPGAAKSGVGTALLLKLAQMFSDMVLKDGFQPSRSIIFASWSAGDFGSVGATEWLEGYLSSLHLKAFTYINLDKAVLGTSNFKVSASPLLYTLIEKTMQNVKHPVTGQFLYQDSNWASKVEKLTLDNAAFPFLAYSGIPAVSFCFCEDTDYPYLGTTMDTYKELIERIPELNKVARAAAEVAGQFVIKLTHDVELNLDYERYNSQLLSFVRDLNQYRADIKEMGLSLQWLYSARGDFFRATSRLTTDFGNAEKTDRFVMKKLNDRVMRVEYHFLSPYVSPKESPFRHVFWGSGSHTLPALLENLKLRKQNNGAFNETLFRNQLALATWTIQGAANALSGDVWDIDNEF

Binder	RLU [1] [RLU]	RLU [2] [RLU]	hCD71:HSA [3]	Cyno apical domain:HSA [4]
B1	2.84e+06	4.61e+06	133	216
B2	3.66e+06	5.2e+06	48	68
B3	2.88e+06	4.2e+06	106	155
B4	4.06e+06	5.45e+06	142	19
B5	3.37e+06	5.04e+06	80	119
B6	1.02e+06	4.1e+06	53	213
B7	1.59e+06	3.01e+06	40	76
B8	2.33e+06	3.95e+06	68	116
B9	2.82e+06	5.13e+06	97	176
B10	2.02e+06	4.67e+06	76	177
B11	2.25e+06	4.85e+06	168	362
B12	4.45e+06	4.9e+06	170	187
B13	2.67e+06	3.91e+06	61	90
B14	1.11e+06	3.51e+06	58	184
B15	3.63e+06	4.75e+06	117	153
B16	3.34e+06	4.95e+06	48	71

Binder	RLU [1] [RLU]	RLU [2] [RLU]	hCD71:HSA [3]	Cyno apical domain:HSA [4]
B17	1.11e+06	3.37e+06	33	100
B18	3.58e+06	4.94e+06	22	31
B19	1.01e+06	4.2e+06	36	148
B20	3.45e+06	4.87e+06	1380	1950
B21	3.06e+06	4.22e+06	67	93
B22	4.27e+06	5.07e+06	356	423
B23	2.33e+06	3.98e+06	43	74
B24	3.49e+06	4.72e+06	127	172
B25	4.2e+06	4.99e+06	92	109
B26	3.74e+06	5.08e+06	74	101
B27	3.9e+06	5.33e+06	49	67
B28	2.56e+06	3.78e+06	52	77
B29	2.46e+06	4.74e+06	130	251
B30	3.19e+06	4.47e+06	108	15
B31	3.81e+06	4.96e+06	101	131
